B1: CPEB3 Ribozyme (parent)
chain: UAACAGGGGGCCACAGCAGAAGCGUUCACGUCGCAGCCCCUGUCAGAUUCUGGUGAAUCUGCGAAUUCUGCUGUAUAUCUC

The variants in this data set derive from B1. Put plainly: self-cleavage, relative activity (ratio to wild type); higher = more cleavage; in vitro, sequencing. In a few lines:
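Relative activity was defined as the cleaved/total read fraction for a variant divided by the same fraction for the unmutated ribozyme. CPEB3 self-cleaving ribozyme libraries were made by rounds of error-prone PCR, barcoded, and transcribed in vitro with T7 RNA polymerase for 5 hours at 37°C, and cleavage ran through transcription plus a 15 min DNase I step before EDTA. Illumina sequencing of template-switched reverse transcripts gave the reads, and DNA sequencing mapped the barcodes. Averages come from three batches, using variants with at least 5 reads.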
Regarding UAACAGGGGGCCACAGCAGAAGCGUUCACGGCGCAGCCCCUGUCAGAUUCUGGUGAAUCUGCGAAUUCUGCAGUAUAUCUC, the self-cleavage is 0.5.
For the variant UAACAGGGGGCCACAGCAGAAGCGUUCACGGCGCAGCCCCUGUCAGAUUCUGGUGAAUCUGCGAAUUCUGCGGUAUAUCUC, the self-cleavage is 0.92.
The same measure for UAACAGGGGGCCACAGCAGAAGCGUUCACGGCGCAGCCCCUGUCAGAUUCUGGUGAAUCUGCGAAUUCUGCCGUAUAUCUC: 0.82.
For the variant UAACAGGGGGCCACAGCAGAAGCGUUCACGCCGCAGCCCCUGUCAGAUUCUGGUGAAUCUGCGAAUUCUGCUGUAUAUCGC, the self-cleavage was 1.13.
Regarding UAACAGGGGGCCACAGCAGAAGCGUUCACGCCGCAGCCCCUGUCAGAUUCUGGUGAAUCUGCGAAUUCUGCUGUAUAUCAC, the self-cleavage came to 1.01.
With UAACAGGGGGCCACAGCAGAAGCGUUCACGCCGCAGCCCCUGUCAGAUUCUGGUGAAUCUGCGAAUUCUGCUGUAUAUCCC, the self-cleavage was 0.96.
The result for UAACAGGGGGCCACAGCAGAAGCGUUCACGGCGCAGCCCCUGUCAGAUUCUGGUGAAUCUGCGAGUUCUGCUGUAUAUCUC reads 0.22.
The result for UAACAGGGGGCCACAGCAGAAGCGUUCACGGCGCAGCCCCUGCCAGAUUCUGGUGAAUCUGCGAAUUCUGCUGUAUAUCUC reads 0.36; that for UAACAGGGGGCCACAGCAGAAGCGUUCACGGCGCAGCCCCUGUCAGAUUCUAGUGAAUCUGCGAAUUCUGCUGUAUAUCUC, 0.74; that for UAACAGGGGGCCACAGCAGAAGCGUUCACGGCGCAGCCCCUGUUAGAUUCUGGUGAAUCUGCGAAUUCUGCUGUAUAUCUC, 0.16.
The result for UAACAGGGGGCCACAGCAGAAGCGUUCACGGCGCAGCCCCUGUCAGAUUCUGGUAAAUCUGCGAAUUCUGCUGUAUAUCUC reads 0.21.
With UAACAGGGGGCCACAGCAGAAGCGUUCACGCCGCAGCCCCUGUCAGAUUCUGGUGAAUCUGCGAAUUCUGCUGUAUAACUC, the self-cleavage stood at 0.86.
The result for UAACAGGGGGCCACAGCAGAAGCGUUCACGCCGCAGCCCCUGUCAGAUUCUGGUGAAUCUGCGAAUUCUGCUGUAUACCUC reads 0.87; that for UAACAGGGGGCCACAGCAGAAGCGUUCACGCCGCAGCCCCUGUCAGAUUCUGGUGAAUCUGCGAAUUCUGCUGUAUAGCUC, 0.84.
The same measure for UAACAGGGGGCCACAGCAGAAGCGUUCACGCCGCAGCCCCUGUCAGAUUCUGGUGAAUCUGCGAAUUCUGCUGUACAUCUC: 0.88; for UAACAGGGGGCCACAGCAGAAGCGUUCACGCCGCAGCCCCUGUCAGAUUCUGGUGAAUCUGCGAAUUCUGCUGUAAAUCUC: 0.77.
For the variant UAACAGGGGGCCACAGCAGAAGCGUUCACGCCGCAGCCCCUGUCAGAUUCUGGUGAAUCUGCGAAUUCUGCUGUAGAUCUC, the self-cleavage was found to be 0.8.
The result for UAACAGGGGGCCACAGCAGAAGCGUUCACGGCGCAGCCCCUGUCAGAUUCUGGCGAAUCUGCGAAUUCUGCUGUAUAUCUC reads 0.63; that for UAACAGGGGGCCACAGCAGAAGCGUUCACGGCGCAGCCCCUGUCAGAUUCUGGAGAAUCUGCGAAUUCUGCUGUAUAUCUC, 0.62.
The same measure for UAACAGGGGGCCACAGCAGAAGCGUUCACGGAGCAGCCCCUGUCAGAUUCUGGUGAAUCUGCGAAUUCUGCUGUAUAUCUC: 0.28.
In the case of UAACAGGGGGCCACAGCAGAAGCGUUCACGGUGCAGCCCCUGUCAGAUUCUGGUGAAUCUGCGAAUUCUGCUGUAUAUCUC, the self-cleavage was 0.22.
The result for UAACAGGGGGCCACAGCAGAAGCGUUCACGUAGCAGCCCCUGUCGGAUUCUGGUGAAUCUGCGAAUUCUGCUGUAUAUCUC reads 0.32; that for UAACAGGGGGCCACAGCAGAAGCGUUCACGUAGCAGCCCCUGUCUGAUUCUGGUGAAUCUGCGAAUUCUGCUGUAUAUCUC, 0.35; that for UAACAGGGGGCCACAGCAGAAGCGUUCACGGCGCAGCCCCUGUCAGAUUCUGGUGAAUCUGCGAAUUCUGCUGUGUAUCUC, 0.54.
On to UAACAGGGGGCCACAGCAGAAGCGUUCACGGCGCAGCCCCUGUCAGAUUCUGGUGAAUCUGCGAAUUCUGCUGUUUAUCUC, for which the self-cleavage came out at 0.46.
The result for UAACAGGGGGCCACAGCAGAAGCGUUCACGGCGCAGCCCCCGUCAGAUUCUGGUGAAUCUGCGAAUUCUGCUGUAUAUCUC reads 0.33; that for UAACAGGGGGCCACAGCAGAAGCGUUCACGGCGCAGCCCCAGUCAGAUUCUGGUGAAUCUGCGAAUUCUGCUGUAUAUCUC, 0.29.
The same measure for UAACAGGGGGCCACAGCAGAAGCGUUCACGGCGCAGCCCCUGUCAGAUUCUGGUGAAUCUGCGAAUUCUGCUGUAUAUCUC: 0.5; for UAACAGGGGGCCACAGCAGAAGCGUUCACGGCGCAGCCCCUGUCAGAUUCUGAUGAAUCUGCGAAUUCUGCUGUAUAUCUC: 0.18; for UAACAGGGGGCCACAGCAGAAGCGUUCACGGCGCAGCCCCUGUCAGAUUCUGGUGAAUCUGCGAAUUCCGCUGUAUAUCUC: 0.18.
The same measure for UAACAGGGGGCCACAGCAGAAGCGUUCACGGCGCAGCCCCUGUCAGAUUCUGGUGAAUCUGCGAAUUCAGCUGUAUAUCUC: 0.22; for UAACAGGGGGCCACAGCAGAAGCGUUCACGGCGCAGCCCCUGUCAGAUUCUGGUGAACCUGCGAAUUCUGCUGUAUAUCUC: 0.4.
On to UAACAGGGGGCCACAGCAGAAGCGUUCACGGCGCAGCCCCUGUCAGAUUCUGGUGAAACUGCGAAUUCUGCUGUAUAUCUC, for which the self-cleavage was found to be 0.44.
As for UAACAGGGGGCCACAGCAGAAGCGUUCACGGCACAGCCCCUGUCAGAUUCUGGUGAAUCUGCGAAUUCUGCUGUAUAUCUC, the self-cleavage is 0.57.

The values above are taken from the RNAGym collection of RNA variant scans (doi:10.1093/nar/gkz1192).
